The record followed here is publication doi:10.1101/2024.06.17.599268 (bioRxiv, 2024).

Assay [1] has as its target T1, Mical1 MO-CH-LIM (residues 1-781) (human, UniProt Q8TDZ2 1-781).
T1 sequence: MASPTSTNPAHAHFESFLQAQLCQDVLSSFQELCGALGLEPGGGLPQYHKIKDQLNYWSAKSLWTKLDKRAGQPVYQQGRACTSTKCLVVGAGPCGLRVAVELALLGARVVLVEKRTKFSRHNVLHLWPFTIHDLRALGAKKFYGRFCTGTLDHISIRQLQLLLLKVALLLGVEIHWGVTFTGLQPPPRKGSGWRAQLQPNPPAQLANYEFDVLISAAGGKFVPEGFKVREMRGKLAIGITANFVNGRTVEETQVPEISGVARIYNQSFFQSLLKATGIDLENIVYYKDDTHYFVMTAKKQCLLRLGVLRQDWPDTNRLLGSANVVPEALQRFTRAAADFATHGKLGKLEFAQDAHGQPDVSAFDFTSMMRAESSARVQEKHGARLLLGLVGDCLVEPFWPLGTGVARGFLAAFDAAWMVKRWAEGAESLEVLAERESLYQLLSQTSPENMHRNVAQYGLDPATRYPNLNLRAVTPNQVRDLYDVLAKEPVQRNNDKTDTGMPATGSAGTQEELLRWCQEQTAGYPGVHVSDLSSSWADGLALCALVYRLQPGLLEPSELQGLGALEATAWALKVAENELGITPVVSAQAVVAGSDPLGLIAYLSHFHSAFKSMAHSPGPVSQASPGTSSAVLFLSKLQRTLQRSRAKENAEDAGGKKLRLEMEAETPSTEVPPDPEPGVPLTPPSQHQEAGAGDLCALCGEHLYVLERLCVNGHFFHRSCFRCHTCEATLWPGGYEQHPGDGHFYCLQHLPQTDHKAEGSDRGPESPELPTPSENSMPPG
In words: ITC. A general note: In ITC the heat of successive injections is recorded.

The target in the next assay is T2, Rab8a_(1-176) (human, UniProt P61006 1-176).
T2 sequence: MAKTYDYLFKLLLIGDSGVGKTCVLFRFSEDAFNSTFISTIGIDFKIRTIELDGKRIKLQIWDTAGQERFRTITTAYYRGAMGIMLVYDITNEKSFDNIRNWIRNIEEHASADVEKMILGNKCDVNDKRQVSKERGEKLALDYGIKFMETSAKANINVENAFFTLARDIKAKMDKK
In words: ITC.

The next assay deals with T3, Rab10_(1-175) (human, UniProt P61026 1-175).
T3 sequence: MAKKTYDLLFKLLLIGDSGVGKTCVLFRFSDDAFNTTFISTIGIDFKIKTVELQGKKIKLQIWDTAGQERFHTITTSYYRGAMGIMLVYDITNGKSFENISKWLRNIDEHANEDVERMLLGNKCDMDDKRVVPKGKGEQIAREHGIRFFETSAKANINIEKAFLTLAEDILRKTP
In words: crystal structure.

B1: bMERB_(V978A) (domain or fragment)
chain: KEEEMKRFCKAQTIQRRLNEIEAALRELEAEGVKLELALRRQSSSPEQQKKLWVGQLLQLADKKNSLVAEEAELMITVQELNLEEKQWQLDQELRGYMNREENLKTAADRQAEDQVLRKLVDLVNQRDALIRFQEERRLSELALGTGAQG
Turning to B1, the “fold reduction in affinity against wild-type bMERB” value in assay [1] came to 2 fold. In addition, the binding result with Rab8a_(1-176) and with Rab10_(1-175) was “binds” throughout.
